Assay results as given in US20260055211A1.

Key:
[1] = target: anti-PR3 autoantibodies in PR3+ANCA patient serum; assay: competition ELISA, medium-titer serum ANCA 97 (1:100) pre-incubated with the binder, unblocked anti-PR3 IgG on a c-ANCA (PR3) ELISA kit, % of untreated
[2] = target: anti-PR3 autoantibodies in PR3+ANCA patient serum; assay: competition ELISA, medium-titer serum ANCA 65 (1:100) pre-incubated with the binder, unblocked anti-PR3 IgG on a c-ANCA (PR3) ELISA kit, % of untreated
[3] = target: anti-PR3 autoantibodies in PR3+ANCA patient serum; assay: depletion with m1-coated magnetic beads (1 mg beads, 1:50 serum, 10 min), flow-through measured by c-ANCA ELISA; five patient sera
[4] = target: anti-PR3 autoantibodies in PR3+ANCA patient serum; assay: blocking ELISA: 1:100 serum pre-incubated 30 min with 0 to 600 µg/ml m1, c-ANCA ELISA kit; 14 out of 15 patient sera of low, medium and high titer
[5] = target: anti-PR3 autoantibodies in PR3+ANCA patient serum; assay: pull-down with binder-coated magnetic beads, serum PR3+ ANCA 93; 100 - (anti-PR3 IgG after binder beads / after control-protein beads x 100), c-ANCA ELISA
[6] = target: anti-PR3 autoantibodies in PR3+ANCA patient serum; assay: blocking ELISA: 1:100 serum pre-incubated 30 min with 0 to 100 µg/ml m1, c-ANCA ELISA kit; patient samples 1, 7, 24 and 58
[7] = target: anti-PR3 autoantibodies in PR3+ANCA patient serum; assay: competition ELISA: serum PR3+ ANCA 1 (1:100) pre-incubated with the binder, unblocked anti-PR3 IgG measured on a c-ANCA (PR3) ELISA kit, % of untreated
[8] = target: anti-PR3 autoantibodies in PR3+ANCA patient serum; assay: pull-down with binder-coated magnetic beads, serum PR3+ ANCA 91; 100 - (anti-PR3 IgG after binder beads / after control-protein beads x 100), c-ANCA ELISA
[9] = target: anti-PR3 autoantibodies in PR3+ANCA patient serum; assay: competition ELISA, low-titer serum ANCA 93 (1:100) pre-incubated with the binder, unblocked anti-PR3 IgG on a c-ANCA (PR3) ELISA kit, % of untreated
[10] = target: anti-PR3 autoantibodies in PR3+ANCA patient serum; assay: pull-down with binder-coated magnetic beads, serum PR3+ ANCA 60; 100 - (anti-PR3 IgG after binder beads / after control-protein beads x 100), c-ANCA ELISA
[11] = target: anti-PR3 autoantibodies in PR3+ANCA patient serum; assay: pull-down with binder-coated magnetic beads, serum PR3+ ANCA 4; 100 - (anti-PR3 IgG after binder beads / after control-protein beads x 100), c-ANCA ELISA
[12] = target: anti-PR3 autoantibodies in PR3+ANCA patient serum; assay: pull-down with binder-coated magnetic beads, serum PR3+ ANCA 97; 100 - (anti-PR3 IgG after binder beads / after control-protein beads x 100), c-ANCA ELISA

- IC50 (read off the curve) [1]: 0.2 µg/mL
- IC50 (read off the curve) [2]: 0.4 µg/mL
- percentage of depletion of anti-PR3 autoantibodies [3]: > 50%
- residual binding percentage (residual autoantibodies against untreated serum) [4]: < 50%
- % of depletion [5]: 88%
- residual binding percentage (residual autoantibodies against untreated serum) [6]: < 50%
- IC50 (read off the curve) [7]: 0.4 µg/mL
- % of depletion [8]: 53%
- IC50 (read off the curve) [9]: 0.5 µg/mL
- % of depletion [10]: 91%
- % of depletion [11]: 81%
- % of depletion [12]: 51%
B1: PR3 glycoengineered polypeptide (protein)
chain: IVGGHEAQPHSRPYMASLQMRGNPGSHFCGGTLIHPSFVLTAAHCLRDIPQRLVNVVLGAHNVRTQEPTQQHFSVAQVFLNNYDAENKLNDVLLIQLSSPANLSASVATVQLPQQDQPVPHGTQCLAMGWGRVGAHDPPAQVLQELNVTVVTAACRPHNICTFVPRRKAGICFGDAGGPLICDGIIQGIDSFVIWGCATRAAPDFFTRVALYVDWIRSTLRRVEAKGRPGGGGANSTAPAPAPAHHHHHHHHHH
modifications: N-glycans (81.5% A2GalNAc2, biantennary GalNAc-terminated) at the native sites N129 and N174 (numbering of UniProt P24158) and at the Asn of the C-terminal glycotag; 80-90% of molecules fully …
